Test results from paper doi:10.1101/2023.11.02.23297943 (medRxiv, 2023).

Target: the molecule itself
Experiment: cross-linking

Protein	binding result	percent of dimers formed, compared to wild-type	percent of tetramers formed, compared to wild-type	percent of trimers formed, compared to wild-type
mitochondrial single-stranded DNA-binding protein 1 (SSBP1), wild-type recombinant protein (natural protein, human, UniProt Q04837 17-148, looked up) ESETTTSLVLERSLNRVHLLGRVGQDPVLRQVEGKNPVTIFSLATNEMWRSGDSEVYQLGDVSQKTTWHRISVFRPGLRDVAYQYVKKGSRIYLEGKIDYGEYMDKNNVRRQATTIIADNIIFLSDQTKEKE	binds	–	–	–
SSBP1 p.Arg91Gln mutant, recombinant protein (natural protein, human, UniProt Q04837 17-148, looked up) ESETTTSLVLERSLNRVHLLGRVGQDPVLRQVEGKNPVTIFSLATNEMWRSGDSEVYQLGDVSQKTTWHRISVFQPGLRDVAYQYVKKGSRIYLEGKIDYGEYMDKNNVRRQATTIIADNIIFLSDQTKEKE	–	37.4 % of wild-type	20.5 % of wild-type	12.7 % of wild-type
